{"source": "IntAct's records for PubMed 26305884", "molecular_target": "ccyl1_mouse Ccnyl1 (UniProt D3YUJ3)", "sequence (D3YUJ3 whole entry)": "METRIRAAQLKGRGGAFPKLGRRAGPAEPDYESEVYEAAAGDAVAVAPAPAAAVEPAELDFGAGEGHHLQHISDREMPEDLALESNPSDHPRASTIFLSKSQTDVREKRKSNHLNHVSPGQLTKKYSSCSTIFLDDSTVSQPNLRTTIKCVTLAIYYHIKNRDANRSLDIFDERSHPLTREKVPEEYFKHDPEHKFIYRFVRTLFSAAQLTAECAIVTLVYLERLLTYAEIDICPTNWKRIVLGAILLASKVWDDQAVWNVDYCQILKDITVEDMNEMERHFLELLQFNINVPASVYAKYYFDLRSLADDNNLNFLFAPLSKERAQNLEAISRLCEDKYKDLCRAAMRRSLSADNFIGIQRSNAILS", "data": [{"substance": "Cyclin-dependent kinase 16 (Mus musculus), Q04735 S119A", "values": [{"measurement": "effect of a mutation on the interaction", "result": "decreasing interaction strength"}]}, {"substance": "Cyclin-dependent kinase 16 (Mus musculus), Q04735 S153A", "values": [{"measurement": "effect of a mutation on the interaction", "result": "increasing interaction strength"}]}, {"substance": "Cyclin-dependent kinase 16 (Mus musculus), Q04735 S78A", "values": [{"measurement": "effect of a mutation on the interaction", "result": "increasing interaction strength"}]}, {"substance": "Cyclin-dependent kinase 16 (Mus musculus), Q04735 S146A", "values": [{"measurement": "effect of a mutation on the interaction", "result": "disrupting interaction strength"}]}, {"substance": "Cyclin-dependent kinase 16 (Mus musculus), Q04735 S146D", "values": [{"measurement": "effect of a mutation on the interaction", "result": "disrupting interaction strength"}]}, {"substance": "Cyclin-dependent kinase 16 (Mus musculus), Q04735 S110A", "values": [{"measurement": "effect of a mutation on the interaction", "result": "decreasing interaction strength"}]}, {"substance": "Cyclin-dependent kinase 16 (Mus musculus), Q04735 P205A;T207A;R210A;E211A", "values": [{"measurement": "effect of a mutation on the interaction", "result": "disrupting interaction strength"}]}, {"substance": "Cyclin-dependent kinase 16 (Mus musculus), Q04735 T175A", "values": [{"measurement": "effect of a mutation on the interaction", "result": "decreasing interaction strength"}]}, {"substance": "Cyclin-dependent kinase 16 (Mus musculus), Q04735 S110D", "values": [{"measurement": "effect of a mutation on the interaction", "result": "decreasing interaction strength"}]}, {"substance": "Cyclin-dependent kinase 16 (Mus musculus), Q04735 T175D", "values": [{"measurement": "effect of a mutation on the interaction", "result": "increasing interaction strength"}]}, {"substance": "Cyclin-dependent kinase 16 (Mus musculus), Q04735 S153D", "values": [{"measurement": "effect of a mutation on the interaction", "result": "decreasing interaction strength"}]}]}
